Measured values as given in the supplement of paper PMC7125110.
± gives the standard error. For part of these data: This sample holds only a part of the variants without activity.

B1: glmS ribozyme (parent)
chain: AUAAAAGCGCCAGAACUACAGAAAUGUAGUUGACGAGGAGGAGGUUUAUCGAAUUUUCGGCGGAUGCCUCCAAA

How the values were obtained:
Details in all cases: with glucosamine-6-phosphate
[1] = variants of: B1; test: kcat; higher = faster cleavage; RNA array
Summary of the method: (§1)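 Tracking of barcoded ribozyme variants used a hybridised Cy3 probe at 37 °C, after in situ transcription by E. coli RNA polymerase on sequenced MiSeq chips. The flowed solution held 40 μM to 10 mM glucosamine-6-phosphate in HEPES/KCl/Mg(OAc)2 buffer, and imaging ran over ~14 h. kobs was taken from exponential decay fits of normalised per-tile medians, and kcat and KM from weighted Michaelis–Menten fits.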

[2] = variants of: B1; test: KM; higher = weaker cofactor use; RNA array
Summary of the method: as §1

[3] = variants of: B1; test: self-cleavage kobs at 40 uM GlcN6P; higher = faster cleavage; RNA array
Summary of the method: as §1

[4] = variants of: B1; test: self-cleavage kobs at 160 uM GlcN6P; higher = faster cleavage; RNA array
Summary of the method: as §1

[5] = variants of: B1; test: self-cleavage kobs at 640 uM GlcN6P; higher = faster cleavage; RNA array
Summary of the method: as §1

[6] = variants of: B1; test: self-cleavage kobs at 2500 uM GlcN6P; higher = faster cleavage; RNA array
Summary of the method: as §1

[7] = variants of: B1; test: self-cleavage kobs at 10000 uM GlcN6P; higher = faster cleavage; RNA array
Summary of the method: as §1

| Variant | kcat [1] [s⁻¹] | KM [2] [µM] | self-cleavage kobs at 40 uM GlcN6P [3] [s⁻¹] | self-cleavage kobs at 160 uM GlcN6P [4] [s⁻¹] | self-cleavage kobs at 640 uM GlcN6P [5] [s⁻¹] | self-cleavage kobs at 2500 uM GlcN6P [6] [s⁻¹] | self-cleavage kobs at 10000 uM GlcN6P [7] [s⁻¹] |
| --- | --- | --- | --- | --- | --- | --- | --- |
| AUAAAAGCGCCAGAACUACAGAAAUGUAGUUGACGAGGAGGAGGGUUAUCGACUUUUCGGCGGAUGCCUCCAAA [U45G A53C] | 0.00249 ± 0.00031 | 1820 ± 370 | 5.63e-05 ± 8.5e-06 | 0.000176 ± 3.1e-05 | 0.000627 ± 0.00012 | 0.00179 ± 0.00022 | 0.00197 ± 0.00021 |
| AUAAAAGCGCCAGAACUACAGAAAUGUAGUUGACGCGGAGGAGGUUUAUCGAAUCUUCGGCGGAUGCCUCCAAA [A36C U55C] | < 1e-05 | – | – | – | – | – | < 1e-05 |
| AUAAAAGCGCCAGAUCUACAGAAAUGUAGUUGACGAGGAGGAGGUUGAUCGAAUUUUCGGCGGAUGCCUCCAAA [A15U U47G] | 0.000703 ± 0.00012 | 1160 ± 360 | 5.1e-05 ± 1.1e-05 | 8.04e-05 ± 1.3e-05 | 0.000238 ± 2.7e-05 | 0.000473 ± 5.8e-05 | 0.000653 ± 7.7e-05 |
| AUAAAAGCGCCAGAACUACAGAAAUGUAGUUGACGAGGACGAGGUUUAUCGAAUUUUCGGCGGAAGCCUCCAAA [G40C U65A] | 0.000379 ± 3.9e-05 | 1830 ± 350 | – | 3.58e-05 ± 1.5e-05 | 0.0001 ± 1.9e-05 | 0.000199 ± 3.6e-05 | 0.000346 ± 6.3e-05 |
| AUAAAAGCGCCAGAACUACAGAAAUGUAGUUGACGAGGACAAGGUUUAUCGAAUUUUCGGCGGAUGCCUCCAAA [G40C G41A] | 0.000118 ± 1.4e-05 | 667 ± 260 | – | – | 5.69e-05 ± 8.6e-06 | 0.000104 ± 1.1e-05 | 0.000101 ± 1.3e-05 |
| AUAAAAGCGCCAGAACUACAGAAAUGUAGAUGACGAGGAGGAGGUUCAUCGAAUUUUCGGCGGAUGCCUGCAAA [U30A U47C C70G] | 4.3e-05 ± 6.7e-06 | – | – | – | – | 3.41e-05 ± 1.5e-05 | 3.72e-05 ± 1.7e-05 |
| AUAAAAGCGCCAGUACUACAGAAAUGUAGUGGACGAGGAGGAGGUUUAUCGAAUUUUCGGCGGAUGCCUCCAAA [A14U U31G] | 0.00512 ± 0.0017 | 2230 ± 1100 | 0.000142 ± 2.1e-05 | 0.000241 ± 5.5e-05 | 0.00115 ± 0.0003 | 0.00273 ± 0.0005 | 0.00424 ± 0.0007 |
| AUAAAAGCGCCAGAUCUACAGAAAUGUAGUUGACGAGGAGGAGGUUUAUCGAAUUUUCGGCGGAUGGCUCCAAA [A15U C67G] | 0.000167 ± 1.9e-06 | 1030 ± 37 | – | 2.34e-05 ± 1.1e-05 | 6.43e-05 ± 9.7e-06 | 0.000115 ± 1.8e-05 | 0.000153 ± 1.2e-05 |
| AUAAAUGCGCCAGAACUACAGAAAUGUAGUUGACGAGGAGGAGGUUAAUCGAAUUUUCGGCGGAUGCCUCCAAA [A6U U47A] | 0.000155 ± 3.1e-06 | 1890 ± 110 | – | – | 3.88e-05 ± 9.8e-06 | 8.84e-05 ± 1.2e-05 | 0.000131 ± 1.3e-05 |
| AUAAAAGCACCAGAACUACAGAAAUGUAGUUGACGAGGAGGGGGUUUAUCGAAUUUUCGGCGGAUGCCUCCAAA [G9A A42G] | 1.5e-05 ± 2.2e-06 | – | < 1e-05 | – | – | – | – |
| AUAAAAGCGCUUGAACUACAGAAAUGUAGUUGACGAGGAGGAGGUUUAUCGAAUUUUCGGCGGAUGCCUCCAAA [C11U A12U] | 0.00624 ± 0.00051 | 1290 ± 150 | 0.000179 ± 1.8e-05 | 0.000886 ± 0.00016 | 0.00209 ± 0.00035 | 0.00418 ± 0.00075 | 0.00547 ± 0.00057 |
| AUAAAAGCGCCACAACUACAGAAAUGUAGUUGACGAGGAGUAGGUUUAUCGAAUUUUCGGCGGAUGCCUCCAAA [G13C G41U] | 3.06e-05 ± 9.2e-06 | – | – | – | – | – | – |
| AUAAAAGCGCCAGAACUACAGAAAUGUAGUUGACGAGGAGGAGGUUUAUCGAAUUUUCGGCGGAUGCUUCAAAA [C68U C71A] | 1.12e-05 ± 6.7e-07 | – | – | – | – | – | – |
| AUAAAAGCGCCAGAACUACAGAAAUGUAGUUGACGAGGAGGAGGUUUAUCGAAUAUUCGGCGGACGACUCCAAA [U55A U65C C67A] | 0.000108 ± 1.2e-05 | – | – | – | 8.44e-05 ± 2.9e-05 | 8.42e-05 ± 2.6e-05 | 0.000114 ± 2.4e-05 |
| AUAAAAGCGCCAGAACUACAGAAAUGUAGUUGACGAGGAGGAGGUUAAUCGAAUUUUCGGCGGAUGCCUCAAAA [U47A C71A] | 0.00195 ± 0.00046 | 1020 ± 320 | 6.97e-05 ± 1.4e-05 | 0.000253 ± 6.8e-05 | 0.00117 ± 0.00028 | 0.00138 ± 0.00038 | 0.00153 ± 0.00055 |
| AUAAAAGCGCCAGAACUACAGAAAUGUAGUUGACGAGGAAGAGGUUUAUCGAAUUUCCGGCGGAUGCCUCCAAA [G40A U57C] | 3.56e-05 ± 5.2e-06 | – | – | – | – | 4.59e-05 ± 2e-05 | 3.15e-05 ± 1.2e-05 |
| AUAAAAGCGCGAGAACUACAGAAAUGUAGUUGACGAGGAGGAGGUUUGUCGAAUUUUCCGCGGAUGCCUCCAAA [C11G A48G G59C] | 0.000345 ± 1.4e-05 | 1870 ± 150 | – | – | 8.84e-05 ± 2.1e-05 | 0.0002 ± 3.7e-05 | 0.000286 ± 7.5e-05 |
